Measurements reported in patent US20020107174A1, “COMPOSITION COMPRISING ENDOTOXIN NEUTRALIZING PROTEIN AND DERIVATIVES AND USES THEREOF” (priority 1998, published 2002).

Legend:
[1] = system: Bortadella sp.; assay: Growth inhibition of Bortadella sp., optical density; settings: GMS alone
Procedure: An LAL 5000 spectrophotometer (Associates of Cape Cod) was used to monitor optical density changes over time when bacteria were grown in sterilized Luria broth (LB). The LAL 5000 can accommodate up to 32 individual 10×75 mm glass test tubes in its circular array. Automated temperature control was maintained at 37° C. for these experiments. LB was placed into sterile, oven depyrogenated glass test tubes. […] Other gram-negative (E. coli strains Rosenbergii sp., K12, X10, HB101, Shewanella sp., Bortadella sp.) and gram-positive bacteria (e.g., S. aureus, and Bacillus spp.) were grown in this manner and changes in optical density were monitored over time. The optical density data was collected, stored and analyzed by computer which was interfaced with the LAL 5000.
The tubes were then inoculated with cells from a log phase culture of Bortadella sp. Optical density of each tube was monitored via method described above.

[2] = system: E. coli strain 25303; assay: Growth inhibition of E. coli in Luria broth, optical density (LAL 5000); assay type: cell-based
Procedure: E. coli cells were cultured overnight at 37° C. in LB. Aliquots were diluted 1:100 in fresh LB (control). LB plus PMB was serially diluted from 0.25 μg/ml to 0.001 μg/ml. LB plus Limulus ENP was formulated at concentrations from 20 to 0.07,μg/ml. Optical density of the cell culture was recorded at 410 nm during the course of the experiment.
The tubes were then inoculated with cells of a log phase E. coli culture.
TET was serially diluted with LB in ten-fold increments from 10 μg/ml to 0.0001 μg/ml.
E. coli cells were cultured overnight at 37° C. in LB. Aliquots of the culture were diluted 1:100 in fresh LB as controls. Test samples consisted of cells in: LB plus AMP at 2.5 μg/ml; LB plus Limulus ENP at 25 and 5 μg/ml; and combination of 2.5 μg/ml AMP and either 2.5 or 5.0 μg/ml Limulus ENP. Optical density of the cell samples was recorded at 410 nm during the course of the experiment.

[3] = system: meningococcal endotoxins; settings: rabbits, cited from earlier work
[4] = system: E. coli cultures; assay: Endotoxin levels in antibiotic-inhibited cultures, Limulus amebocyte lysate (LAL) assay; assay type: cell-based
Procedure: Antibiotic-inhibited gram-negative bacteria release endotoxins into the medium. […] E. coli cultures treated with antibiotic alone or in combination with Limulus ENP were prepared and incubated as described in Sections 6.3.1 and 6.3.2, above. The endotoxin levels present in the cultures were measured using the standard Limulus amebocyte lysate (LAL) assay.

[5] = system: E. coli endotoxins; settings: rabbits, cited from earlier work
[6] = system: Propionibacterium acnes, ATCC No. 11827; assay: Zone inhibition assay; assay type: cell-based; settings: 4 mm disc treated with 10 μl (Limulus ENP 1 mg/ml; benzoyl peroxide 0.05%), overnight at 37° C.
Procedure: The inhibitory effect of a recombinant Limulus ENP (i.e., that expressed from the fusion protein II construct discussed above) was tested against Propionibacterium acnes, the bacterium that causes acne, using a zone inhibition assay. Petri dishes were filled with sterile nutrient agar following standard microbiological procedures. The nutrient agar-filled dishes were allowed to cool and harden before being inoculated with test bacteria. Using a sterile swab, the surface of the petri dishes were inoculated with a culture of Propionibacterium acnes, ATCC No. 11827, that had grown overnight at 37° C.
Sterile filter paper discs (4 mm, Whatman) were treated with 10 μl of aqueous solutions of (1) recombinant Limulus ENP at a concentration of 1 mg/ml (the test sample); (2) benzoyl peroxide at a concentration of 0.05% (the positive control); or (3) sterile saline (the negative control). Benzoyl peroxide serves as a positive control because it is known to inhibit the growth of Propionibncterium acnes.
The treated filter paper discs were placed on the inoculated plates and the plates incubated overnight at 37° C. The Limulus ENP disc produced a zone of inhibition having a diameter of 4-5 mm. The benzoyl peroxide disc produced a zone of inhibition having a diameter of 10-11 mm. The negative control disc produced no zone of inhibition.

[7] = system: Pool 4 (Yeast): Candida parapilosis, C. albicans; assay: Preservative challenge of oil in water emulsion, plate count, Pool 4; assay type: cell-based; settings: 0.01% (weight/volume) in emulsion, eight week period
Procedure: (§1) The cell numbers of the pools were quantitated by serial dilution. That is, the number of viable cells was determined by taking an aliquot from the sample, diluting it and culturing it so that colonies arising from individual cells could be counted.
(§2) An oil in water emulsion was prepared comprising the following ingredients:
(§3) To test its antimicrobial activity, Limulus ENP was added to the emulsion to achieve a concentration of about 0.01 weight percent, with appropriate adjustment of distilled water. Control and Limulus ENP-containing emulsions were inoculated with 10^8 viable cells from each of the five microorganism pools. The number of viable microbial cells was determined by plate count at the time of the initial inoculating, and at weekly intervals up to 8 weeks. After obtaining an aliquot for cell count at Week 3, microbes were re-inoculated to initial levels. The weekly cell counts are shown in Table 5 as logs of the cell number.

[8] = system: endotoxins; assay: Biological activity of recombinant Limulus ENP from S. cerevisiae; settings: from pCGS965-transformed S. cerevisiae
Text: In one yeast expression system, an expression construct encoding the aforementioned fusion protein I was inserted into an autonomous replicating plasmid yielding pCGS965 (FIG. 9). This plasmid, in turn, was used to transform S. cerevisiae strain 2470. pCGS965 carries the gene for uracil production, which complements the host strain's auxotrophy for this base. Recombinant Limulus ENP has been expressed, purified, and characterized from pCGS965-transformed cells grown at the 500 liter scale. Fusion protein I was expressed and correctly processed, and the Limulus ENP secreted into the medium. The recombinantly produced Limulus ENP has biological activity identical to that of ENP isolated from Limulus amebocytes.

[9] = system: Pool 5 (Fungi): Aspergillus niger; assay: Preservative challenge of oil in water emulsion, plate count, Pool 5; assay type: cell-based; settings: 0.01% (weight/volume) in emulsion, eight week period
Procedure: as §1, §2, §3

[10] = system: uncharacterized gram-positive bacterium isolated from marine organisms; assay: Growth inhibition of gram-positive bacterium from marine organisms, optical density at 410 nm; assay type: cell-based; settings: Limulus ENP at 2.5 or 5 μg/ml
Procedure: An uncharacterized gram-positive bacterium isolated from marine organisms was cultured overnight at 37° C. in LB. Aliquots of the culture were diluted 1:100 in fresh LB as controls. Test samples consisted of cells in LB plus LimulusENP at 2.5 or 5.0 μg/ml. The control and Limulus ENP-treated cultures were incubated at 37° C. Optical density of the cultures was recorded at 410 nm during the course of the experiment to monitor the growth of the gram-positive bacterium.

[11] = system: human macrophages; settings: cited from earlier work
[12] = system: human endothelial cells; settings: cited from earlier work
[13] = system: endotoxins or lipid A from gram-negative bacteria; settings: ENP added in excess; cited from earlier work
[14] = system: rough gram-negative bacteria; settings: cited from earlier work
[15] = system: Escherichia coli endotoxin; settings: rats; cited from earlier work
[16] = system: murine splenocytes; settings: cited from earlier work
[17] = system: encapsulated strain of E. coli; settings: rats, cited from earlier work
[18] = system: E. coli; settings: rabbits; cited from earlier work
[19] = compared with anti-endotoxin antibody HA-1A

With gentamycin sulfate [GMS] the “lowest effective concentration which almost totally inhibited the growth of Bortadella sp.” value [1] was 10 µg/mL and the “effective concentration which substantially inhibits the growth of E. coli” value ([2]; GMS alone, Luria broth) was 0.5 µg/mL.

For polymixin B [PMB, reference compound], the “physiologic functions or mortality” value ([3]; pretreatment with PMB alone) is listed as “failed to improve”, the “ENDOTOXIN LEVEL” value ([4]; E. coli cultures inhibited by PMB at 5 μg/ml) is listed as 3.8 µg/mL and the shock and mortality ([5]; pretreatment with PMB, potent dose of E. coli endotoxins) is listed as “effective in preventing shock and mortality”. For the same molecule, the “inhibition of growth of E. coli” value ([2]; 0.06 μg/ml PMB alone) was “approximately 20%” and the “lowest effective concentration which totally inhibited the growth of E. coli” value ([2]; PMB alone, Luria broth) was 5 µg/mL.

In the case of `O=C(OOC(=O)c1ccccc1)c1ccccc1` [benzoyl peroxide, reference compound], the “zone of inhibition, diameter” value [6] is reported as 10-11 mm.

B1: Limulus ENP: the 11.8 kDa ENP from the horseshoe crab Limulus polyphemus; residues 5 to 105 of SEQ ID NO:2 or SEQ ID NO:5 (protein, listed as Limulus polyphemus)
chain: DGIWTQLIFTLVNNLATLWQSGDFQFLDHECHYRIKPTFRRLKWKYKGKFWCPSWTSITGRATKSSRSGAVEHSVRNFVGQAKSSGLITQRQAEQFISQYN
With B1 the “killing and re-growth of the yeasts Candida parapilosis and Candida albicans” value [7] was “effective at killing and preventing the re-growth”, the “zone of inhibition, diameter” value [6] was 4-5 mm and the “biological activity compared with ENP isolated from Limulus amebocytes” value [8] was “identical”. The “effect of serum proteins on biological activity, antimicrobial properties and endotoxin binding activity” value ([4]; serum-containing media) was “did not adversely affect”, the “effect on the fungus Aspergiltus niger” value [9] was “limited fungal growth” and the “growth of the gram-positive bacterium” value [10] was “effectively inhibited”.

B2: ENP: protein found in horseshoe crab amebocyte lysates that binds and neutralizes the biological activity of endotoxins (protein, listed as Limulus polyphemus)
chain: B1 chain
In the case of B2, the “endotoxin induction of release of tumor necrosis factor by human macrophages” value [11] is given as “inhibit”, the “physiological functions and survival rate” value ([3]; administered 30 minutes after meningococcal endotoxin challenges) is given as “significantly improved” and the “protection against lethal meningococcal challenge” value [3] is given as “protective”. The “endotoxin induction of activation of human endothelial cells” value [12] was “inhibit”, the “endotoxin activity in the mixture” value [13] was “greatly reduced” and the “growth of rough gram-negative bacteria” value [14] was “inhibits the growth”. For the same molecule, the “protection against lethal Escherichia coli endotoxin challenge” value [15] was “protective”, the “endotoxin induction of mitogenesis of murine splenocytes” value [16] was “inhibit” and the “physiological functions and survival rate” value ([5]; 2.5 or 5 mg/kg before lethal endotoxin challenges) was “significantly improved”. For the same molecule, the survival rates ([5]; administered 30 min. after endotoxin challenge) was “improved survival rates”, the circulating endotoxin concentrations [17, 19] was “significantly lower” and the survival rates [17, 19] was “improved survival rates”. The “lethal effect of endotoxins released by the infecting E. coli” value ([17]; dose of 50 mg/kg, also when administered after endotoxin had circulated) was “blocked the lethal effect”, the “survival rate with E. coli sepsis” value [17] was “improve the survival rate” and the “survival rate with E. coli sepsis” value [18] was “improve the survival rate”.
